Blank lines part the entries; values can stand above or below the binder they belong to. No end group written: not given here. *: point of attachment. Biotin = O=C1N[C@H]2[C@H](CS[C@H]2CCCCC(=O)*)N1
B1: N-terminally biotinylated G72(138-153) peptide (peptide, UniProt P59103 138-153, looked up)
peptide: Biotin-KDQSCNHKEITSTKAE
B2: N-terminally biotinylated G72(123-153) peptide (peptide, UniProt P59103 123-153, looked up)
peptide: Biotin-RQPLERMWTCNYNQQKDQSCNHKEITSTKAE
modifications: cysteine pairing not given here
B4: DAO-6H (recombinant D-amino acid oxidase with C-terminal (His)6) (enzyme)
chain: not shown
notes: D-amino acid oxidase (DAO), cDNA amplified with DAO-F'-NdeI/DAO-R'-XhoI (the primers of the full-length 1044 bp cDNA, GI:30524341), in pET23a(+); Detected in the pull-down with anti-His-tag; also called recombinant DAO; source: E. coli BL21(DE3)pLysS, purified (HisTrap FF); not shown: His6, C-terminal, kept

Key:
[1] = molecular target: B4; experiment: cell-based or functional assay
[2] = molecular target: T1, BD-G72 (full-length G72 N-terminally tagged with the binding domain) (UniProt P59103 1-153); experiment: two-hybrid; β-galactosidase activity of AH109 transformants grown in SD/-2 broth at 30 °C, normalised to yeast with the AD and BD tags alone; conditions: partners not purified
T1 construct: probably pGBKT7; The BD fusion was detected with anti-c-Myc; also called full-length BD-G72; G72 isoform 1; source: yeast two-hybrid fusion, S. cerevisiae AH109; not shown: from the vector pGBDT7), N-terminal, kept
T1 sequence (looked up): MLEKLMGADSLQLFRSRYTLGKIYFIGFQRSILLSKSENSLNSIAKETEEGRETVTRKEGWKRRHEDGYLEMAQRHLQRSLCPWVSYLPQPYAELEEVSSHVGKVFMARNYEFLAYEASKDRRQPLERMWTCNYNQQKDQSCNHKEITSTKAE

[3] = molecular target: B1; experiment: pull-down; 10 μg biotinylated G72 peptide on streptavidin Sepharose beads, 10 μg DAO-6H in phosphate-buffered saline, 4 °C, 3 h, ten washes; DAO detected by Western blotting (anti-His-tag); beads alone as control; conditions: both partners purified
[4] = molecular target: B2; experiment: as above; conditions: both partners purified

Binder: B1
initial velocity (V0) of DAO activity (400 nM DAO-6H, 40 mM D-alanine, 25 °C) with 0, 1, 3, 10 μM G72(138-153); V0 at 10 μM, fold of DAO alone in parentheses [1]: 2.94 mol hydrogen peroxide produced/min/g DAO

Binder: B2
initial velocity (V0) of DAO activity (400 nM DAO-6H, 40 mM D-alanine, 25 °C) with 0, 1, 3, 10 μM G72(123-153); V0 at 10 μM, fold of DAO alone in parentheses [1]: 2.71 mol hydrogen peroxide produced/min/g DAO

relative interaction strength by β-galactosidase activity (AD tag with BD tag = 1) [2]: 5.7 fold
B3: AD-DAO (D-amino acid oxidase N-terminally tagged with the activation domain) (enzyme)
chain: not shown
notes: D-amino acid oxidase (DAO), full-length cDNA of 1044 bp, GI:30524341; The AD fusion was detected with anti-HA; source: yeast two-hybrid fusion, S. cerevisiae AH109; not shown: from the vector pGADT7), N-terminal, kept

Binder: B4
relative amount of DAO pulled down (against beads alone) [3]: 2.17 fold
relative amount of DAO pulled down (against beads alone) [4]: 1.38 fold

— paper PMC3907796, “The C-Terminal Region of G72 Increases D-Amino Acid Oxidase Activity” (International Journal of Molecular Sciences, 2013)
